Data published in article PMC6021487.

Molecular target: IL-33 (UniProt O95760)
Assay: co-immunoprecipitation with anti-HA, immunoblot
Details: reference: wild type PTRF; sites Y158

Question: How did the “binding against the reference” value turn out when “polymerase I and transcript release factor (PTRF, Cavin-1) (from UniProt O54724) PTRF Y158F” was run?
Answer: stronger
